Source: patent publication US20240002436A1, “RESPIRATORY TREATMENTS” (Hofseth Biocare ASA, priority 2020, published 2024)

How the values were obtained:
[1] = system: Allergic Human Purified Peripheral Blood Eosinophils; experiment: Percent eosinophil apoptosis (Annexin V-FITC, flow cytometry) in allergic human purified peripheral blood eosinophils; format: cell-based; conditions: 3 μg/mL ApoA-IV (positive control), IL-5 (50 pM), 18 hr incubation
Procedure: Percent Eosinophil Apoptosis in Allergic Human Purified Peripheral Blood Eosinophils
Aliquots were removed after 18 hr incubation, washed twice in PBS, and resuspended in binding buffer. The eosinophil cells were stained using the Annexin V-FITC Apoptosis Detection Kit I, (Sigma Aldrich) and immediately analyzed by flow cytometry. Each sample was acquired for 1 min, and the total number of eosinophils gated on a forward scatter/side scatter plot and the percentage of live cells (annexin Vneg) and apoptotic cells (annexin Vpos) was recorded.

CD11b on PMNL surface = experiment: CD11b change on PMNL surface stimulated by CCL11 (flow cytometry); format: cell-based; conditions: 3 μg/mL ApoA-IV (positive control), 30 min pretreatment, 2.5 nm CCL11 30 min at 37° C., CD16 negative cells
Procedure: CD11b Change (100% as Baseline) on PMNL Surface Stimulated by 2.5 nm CCL11
(PMNL) cells were pretreated with 3 μg/mL ApoA-IV (positive control), 1 μg/mL test compounds, and formulation vehicle (negative control) for 30 minutes and incubated with serial dilutions of CCL 11 for 30 minutes at 37° C. Samples were stained with anti-CD16-PE-Cy5 and anti-CD11b-PE (ICRF44) antibodies. Eosinophils were identified as CD16 negative cells. CD11b upregulation was analyzed by flow cytometry and reported above. (Standard deviation in the assay is +/−2%). See results in Table 2 below.

B1: ApoA-IV: positive control in the eosinophil apoptosis and CD11b assays, used at 3 μg/mL (protein, UniProt P06727 21-396, looked up)
Apolipoprotein A-IV: EVSADQVATVMWDYFSQLSNNAKEAVEHLQKSELTQQLNALFQDKLGEVNTYAGDLQKKLVPFATELHERLAKDSEKLKEEIGKELEELRARLLPHANEVSQKIGDNLRELQQRLEPYADQLRTQVSTQAEQLRRQLTPYAQRMERVLRENADSLQASLRPHADELKAKIDQNVEELKGRLTPYADEFKVKIDQTVEELRRSLAPYAQDTQEKLNHQLEGLTFQMKKNAEELKARISASAEELRQRLAPLAEDVRGNLRGNTEGLQKSLAELGGHLDQQVEEFRRRVEPYGENFNKALVQQMEQLRQKLGPHAGDVEGHLSFLEKDLRDKVNSFFSTFKEKESQDKTLSLPELEQQQEQQQEQQQEQVQMLAPLES
[1]
  Total percent live and apoptotic EO cells: 92.4%
[1]; annexin Vneg
  Percent live EO cells: 29.3%
[1]; annexin Vpos
  Percent of apoptotic EO cells: 63.1%
CD11b on PMNL surface
  CD11b change (100% as baseline): 121%
